Measured values: FireProtDB (doi:10.1093/protein/11.3.213)
Values joined by “and” are separate entries in the source; they are usually repeats but may differ in a detail not shown here. Equal values may be shown once.

B1: Endolysin, P03706 (parent)
chain: MVEINNQRKAFLDMLAWSEGTDNGRQKTRNHGYDVIVGGELFTDYSDHPRKLVTLNPKLKSTGAGRYQLLSRWWDAYRKQLGLKDFSPKSQDAVALQQIKERGALPMIDRGDIRQAIDRCSNIWASLPGAGYGQFEHKADSLIAKFKEAGGTVREIDV

Variants of: B1
Settings: Escherichia phage lambda; pH 4; Thermal; Fluorescence; phosphate 0.1 M; reversible: yes; structure 1AM7; whole UniProt chain shown

| Variant | Tm | unfolding enthalpy (calorimetric) | unfolding enthalpy (van 't Hoff) |
| --- | --- | --- | --- |
| MVEINNQRKAFLDMLAWSEGTDNGRQKTRNNGYDVIVGGELFTDYSDHPRKLVTLNPKLKSTGAGRYQLLSRWWDAYRKQLGLKDFSPKSQDAVALQQIKERGALPMIDRGDIRQAIDRCSNIWASLPGAGYGQFENKADSLIAKFKEAGGTVREIDV [H31N H137N] | 24.5 °C and 26 °C | 40.3 kcal/mol and 43.3 kcal/mol | 29 kcal/mol and 35.4 kcal/mol |

Same assay, conditions: Escherichia phage lambda; pH 4.5; Thermal; Fluorescence; phosphate 0.1 M; reversible: yes; structure 1AM7; whole UniProt chain shown

| Variant | Tm | unfolding enthalpy (calorimetric) | unfolding enthalpy (van 't Hoff) |
| --- | --- | --- | --- |
| MVEINNQRKAFLDMLAWSEGTDNGRQKTRNNGYDVIVGGELFTDYSDHPRKLVTLNPKLKSTGAGRYQLLSRWWDAYRKQLGLKDFSPKSQDAVALQQIKERGALPMIDRGDIRQAIDRCSNIWASLPGAGYGQFENKADSLIAKFKEAGGTVREIDV [H31N H137N] | 39.3 °C | 69.9 kcal/mol | 71 kcal/mol |

Same assay, conditions: Escherichia phage lambda; pH 5.5; Thermal; Fluorescence; phosphate 0.1 M; reversible: yes; structure 1AM7; whole UniProt chain shown

| Variant | Tm | unfolding enthalpy (calorimetric) | unfolding enthalpy (van 't Hoff) |
| --- | --- | --- | --- |
| MVEINNQRKAFLDMLAWSEGTDNGRQKTRNNGYDVIVGGELFTDYSDHPRKLVTLNPKLKSTGAGRYQLLSRWWDAYRKQLGLKDFSPKSQDAVALQQIKERGALPMIDRGDIRQAIDRCSNIWASLPGAGYGQFENKADSLIAKFKEAGGTVREIDV [H31N H137N] | 51.1 °C | 93.5 kcal/mol | 107 kcal/mol |

Same assay, conditions: Escherichia phage lambda; pH 6; Thermal; Fluorescence; phosphate 0.1 M; reversible: yes; structure 1AM7; whole UniProt chain shown

| Variant | Tm | unfolding enthalpy (calorimetric) | unfolding enthalpy (van 't Hoff) |
| --- | --- | --- | --- |
| MVEINNQRKAFLDMLAWSEGTDNGRQKTRNNGYDVIVGGELFTDYSDHPRKLVTLNPKLKSTGAGRYQLLSRWWDAYRKQLGLKDFSPKSQDAVALQQIKERGALPMIDRGDIRQAIDRCSNIWASLPGAGYGQFENKADSLIAKFKEAGGTVREIDV [H31N H137N] | 52.7 °C | 96.7 kcal/mol | 93 kcal/mol |

Same assay, conditions: Escherichia phage lambda; pH 6.5; Thermal; Fluorescence; phosphate 0.1 M; reversible: yes; structure 1AM7; whole UniProt chain shown

| Variant | Tm | unfolding enthalpy (calorimetric) | unfolding enthalpy (van 't Hoff) |
| --- | --- | --- | --- |
| MVEINNQRKAFLDMLAWSEGTDNGRQKTRNNGYDVIVGGELFTDYSDHPRKLVTLNPKLKSTGAGRYQLLSRWWDAYRKQLGLKDFSPKSQDAVALQQIKERGALPMIDRGDIRQAIDRCSNIWASLPGAGYGQFENKADSLIAKFKEAGGTVREIDV [H31N H137N] | 53.6 °C | 98.5 kcal/mol | 111 kcal/mol |

Same assay, conditions: Escherichia phage lambda; pH 6.57; Thermal; Fluorescence; phosphate 0.1 M; reversible: yes; structure 1AM7; whole UniProt chain shown

| Variant | Tm | unfolding enthalpy (calorimetric) | unfolding enthalpy (van 't Hoff) |
| --- | --- | --- | --- |
| MVEINNQRKAFLDMLAWSEGTDNGRQKTRNNGYDVIVGGELFTDYSDHPRKLVTLNPKLKSTGAGRYQLLSRWWDAYRKQLGLKDFSPKSQDAVALQQIKERGALPMIDRGDIRQAIDRCSNIWASLPGAGYGQFENKADSLIAKFKEAGGTVREIDV [H31N H137N] | 50.8 °C | 92.9 kcal/mol | 100 kcal/mol |

Same assay, conditions: Escherichia phage lambda; pH 7.07; Thermal; Fluorescence; phosphate 0.1 M; reversible: yes; structure 1AM7; whole UniProt chain shown

| Variant | Tm | unfolding enthalpy (calorimetric) | unfolding enthalpy (van 't Hoff) |
| --- | --- | --- | --- |
| MVEINNQRKAFLDMLAWSEGTDNGRQKTRNNGYDVIVGGELFTDYSDHPRKLVTLNPKLKSTGAGRYQLLSRWWDAYRKQLGLKDFSPKSQDAVALQQIKERGALPMIDRGDIRQAIDRCSNIWASLPGAGYGQFENKADSLIAKFKEAGGTVREIDV [H31N H137N] | 51.1 °C | 93.5 kcal/mol | 105 kcal/mol |

Same assay, conditions: Escherichia phage lambda; pH 7.57; Thermal; Fluorescence; phosphate 0.1 M; reversible: yes; structure 1AM7; whole UniProt chain shown

| Variant | Tm | unfolding enthalpy (calorimetric) | unfolding enthalpy (van 't Hoff) |
| --- | --- | --- | --- |
| MVEINNQRKAFLDMLAWSEGTDNGRQKTRNNGYDVIVGGELFTDYSDHPRKLVTLNPKLKSTGAGRYQLLSRWWDAYRKQLGLKDFSPKSQDAVALQQIKERGALPMIDRGDIRQAIDRCSNIWASLPGAGYGQFENKADSLIAKFKEAGGTVREIDV [H31N H137N] | 51 °C | 93.3 kcal/mol | 101 kcal/mol |

Same assay, conditions: Escherichia phage lambda; pH 8.07; Thermal; Fluorescence; phosphate 0.1 M; reversible: yes; structure 1AM7; whole UniProt chain shown

| Variant | Tm | unfolding enthalpy (calorimetric) | unfolding enthalpy (van 't Hoff) |
| --- | --- | --- | --- |
| MVEINNQRKAFLDMLAWSEGTDNGRQKTRNNGYDVIVGGELFTDYSDHPRKLVTLNPKLKSTGAGRYQLLSRWWDAYRKQLGLKDFSPKSQDAVALQQIKERGALPMIDRGDIRQAIDRCSNIWASLPGAGYGQFENKADSLIAKFKEAGGTVREIDV [H31N H137N] | 50.1 °C | 91.5 kcal/mol | 91 kcal/mol |
